Laboratory results as given in the domain aggregation screens of Martell et al. (2025).

Assay: soluble fraction after stress (log2 fold change); higher = more stays soluble; pooled small domains, quantitative proteomics
Conditions: stress: 75 degC
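Note: 20 min heating vs room temperature control held 20 min.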

Sequence | soluble fraction (log2)
HMNESEALIARIENLPPIEDLTEKHAEEVKALMTVYSKLKMSDRILVTNYGVLKKDFDALVKKGFLTNED | -0.321
HMVVTRVKAIDVVNIRKSDSETADKLGKAAVGDEFDLLEKKGNGWSKISYEGGEAYIKSEFLEPSE | 0.602
HMVIDFYDPQTKVIHEIKKSSAKEEAHVWQVKYYIYLFEKEEIMGVKGVLEYPLLREIVSVNF | 0.19
HMTNADRFIGEEAMVIKKIDDINNDGQVKIAGQVWSAVSEDKSPLEEGTIVKVIAIRGVKLVVEPVS | -0.369
HMKQAINFSDLNSLEEGLGIAIRQKWNEVSINDVPEDKIELVEDWINNNRGKYKGINISIGSTY | 0.114
HMGEPVASSREVAKRFGKEHKHVLAAIRQILVAENSATKFFHETAFEYRGQRFPEYLMNRDGFALLAMGF | -3.15
HMTTKEEAAYQAIRSAIIDGELKPGQSVTIRDLASRFDLGRTPITDAMKHLALDGWLETTTGVGTRV | -0.183
HMSVAPISYSQFESYLEQGKVASVAVGQDTIAGRFTAPVDGKSQFVTTIVNPQILDRIDKSGVEITGV | 0.144
HMVSSYTMAIQINGKLRATHDFSVDTSQEDIKKIIINLPAIQKYINGVEIKKFIIVPQKIVNIV | -2.73
HMPADHYEVLGIARDADAAEVKRAYRRLARESHPDANHGDSGAEVRFKAVSAAYEVLSDPERRARYDRFGH | 0.0495
HMTVTTDITQYFLQENGLLNGPNARQLRQKIGETLNIGYTNGKQLLKRAQQFGLTRDQILTALKK | -0.638
HMVTLYDGFLSELRKRIPRGAELTNTLVDMLYIEREAVYRRLRGEVPFTFIEVMTVSKELGISLDNLAQA | -1.38
HMINKQPKDYEYFLEKWHFTQTEKHQLHNLILKLNIRYPNKDFLKITENLDNGKLVLKKLEERLSKT | -1.33
HMITNSTEIEAMIDSLIKENPEQAEQYRNGNTKVVGWFVGQMMKASKGKANPQVVGDLLAQKLVG | 0.0621
HMVDIIMDLLEAVAQARPADAFIKSLHIQYQERGGLSKKQLQGLYGKAAKTAGIPPGKLATLEAIILKRP | -2.52
HMDGPGAGGRFLAEDLGTGKMTLEALQRHYVTLVYSRTGKYEETARRLEIDRRTVKKYLDEELLAELRET | 0.0914
HMGRLEVDLVVPYDKYEAMNVIRAEGRILKEDHQGDGAHLKIQINETALWKLKRMLGEGYGQ | -0.13
HMLPKLAEEYAIMEIRGKGENLTAKLINKGGDSFMVRNGTVLQTGHRIDEITQTYVRAEINGMKDYLYFA | -0.645
HMTPNRDDEHLQSLRDYYASNRRIPSLQRIAALLGFSSRSAAVKLMGRLADEGFVERTVDDDAWIPGSRFF | -1.14
HMKRVPFAFAGDMLRWAAWLYHVEKRTQNEIAEELEVSRQTVANYLSEAMSQGLVQVQLRSDIIE | -1.98
HMKVQEVDYGTFLTMVDEGKVNQVDIENSKQITFNTKGDKNKVYITGQVNDPELVNRLYKAGVEFSQEIP | 0.273
HMHSGFHSAILDVDRAVKEGKTLYEALNKYPYIFDETFRSLVRAGEASGELPSILSKLALYLEEQSK | -2.04
HMGIAKLLTEQEYKIALLAAERRTNAMIAEEMNLTENTVKTHLKHIFDKVGIAGNAKNKRHLLADMMNSER | -0.552
HMKTGNPYAQRNTADMYNYGRGIEKDSYLAFVWYFAAYKQGNDNAKPQIDSITASGHLSPNQQLHAKIE | -0.243
HMFELTVGTPIRVIREPYFGKLGTVTELPAQLMVVESGTEVRVLKAKIEGEGEVLVPRANVEIIATG | -1.38
HMVEGTVKWFNDEKGFGFIEQEGGKDVFVHFSAINGSGRRTLHEGQRVTMEVTQGQKGPQAENVNP | 0.147

Sequence | soluble fraction (log2)
HMKQPNFTVIETKILELLFQKDLSSREMQEILKISKDNLIFALQNLLEQEKIVLQTSNTYTVN | -1.88
HMDSALKDDLNAFVKKLDVESQTLFMRRYFLGESVSSLASRFEMSEDNVGVKLFRIRAKLKKYLTGKGYD | -3.1
HMTNQEFNEVFKLLLAAYPNTKDKESVATIYFLTIANELTKKEFAEAVVKILKTRKSGFIPQPAEILEVAK | -2.54
HMDDSSLFGRHTGIGFIVDDIDSGYQTLLAKGVSFEMPPTEQPWGGILALMKDPDGNIFYLD | -0.0389
HMGRQVTVPNVTGMLVEEARAAISEAELWVDSPRAVQGEVTRQEPARGERLSPGQEVRIYTES | 0.204
HMAKVSVNIILKDGVDQTTFVNDVTSNTEVDLKNQLISLPQMVVLSVEEDYINTLKSHSSISILELDE | -0.296
HMRGFTDFEHIEKEYLATIEKLNWPDGVTLPDKLEGEDTGTSFQVGYGDTRASNLWEYSWMK | -0.163
HMSYTWHDMYLLAQEYQKEHGNLIIPRNYKGKNGLNLGYWLYKEKLKYRQGKLAPEKIIALEHIGIVWT | -1.25
HMDRESFIKLGRELARSAFAHVGQKSTEKALETAADVLRLKDPNEVLARLGSAELTGRQVVQAIYPELI | -0.277
HMEDLAERLDNLSTMYAKMDPVRAAQVLLESKNKSENIEVLKRLKPKSLGLILENMPPREAYDYVSELQ | 0.0743
HMAEAPGSVELLAERLRPWWEIHGGEWGSKTKALRFLFGDQAPVAGSYWRALEAAIAQIESTT | -0.692
HMNLDVPGIIKRAKQALNLKRDSELAEFLGVSRATVTNWAARNSIDFRLLLDKLGNTVDYNWLLLGKGNPK | -1.11
HMSKTEEIAYTTFVKYLENKDIEEVYLGNNAKIKVILKDGREMITDNPRTADFKKDLLLHDIKVVEKT | -0.0889
HMDLAPLQTVDIAINYAKAAELAAILKSSEGGILSDRGGVTVDERTNTLLIRDTLESIDEARKTI | 0.224
HMLSDSDTLRDLYLSEQIWNVGDLIRVKGKNDDTHPSWEIIRRGTNYITAIDENYKSHKVWLHDIDI | -1.3
HMEKIIFEISEEGKRLDLYIAERTELTRTRIQQLIKDGNINVNNKKSKPSYKVEKNDFIEMIIPDE | -1.23
HMKSILSEIPGIGPKKRKSLMMQFGSVKNISEASLKDLSSTKGINSNLSKEIFNFFSVEKNN | -0.0299
HMGLQLTPVRRRVLEILLHEHRALGAYDILDKLRSEGLGSQPPVAYRALDFLVTHGFAHKIERLNAF | -0.829
HMTDTSFPRLGAPEEELLSFLAKWEIDAEDAHYTKFSLYYQSTGKMMRDWKATWRAWKERQSELNAQR | -2.33
HMRAEPNSNYSLAIIYKNRYDIAVKKKDAVKEVEYGKMVYEYLNKYVVLSGNKSAKYKKILNYFSSY | -3.02
HMRTPLTGREEQVATLIGRGMTNSEIAESLSVDESTVKTHIGSILRKVHLRDRLQVALWFHGLPIE | -0.67
HMLPQGKGTAMWLADHLAAASVTLDAGARKLLEDTLGEDMSRLPGVLRVLEATFGSDAGRLSAEDIEPFL | 0.075
HMHPVEPDDPDQHILFQHLRGQDQVHIDALIRLSGWTADKVSSTLLFMELQGLVKQLPGMYYALE | -0.806
HMVTDSGEIEKLVDEVIDNNPDQVQQFREGKQQVLSYLVGQAMKLSRGKANPNQVNQFLRDKL | 0.433
HMKSAIKQNILLYLSNKGVTSYEFYKISGVTRGILQQSNGISEDNIAKFLAYAPDVNIEWLLTGKGDMLKH | -1.41
HMDKKEFGKRLKNLRIRNKMSQQAMADSLGYTSRSTINKIEEGINEMSYDKIVRLMELYGLSRPDLGLEPI | -0.439

Sequence | soluble fraction (log2)
HMEANAYFDAYPDVAAEWARLSGSDEGKATLSAIGVTTPQQFAQYHYTTFGSKENRNAPVGYTP | 0.072
HMKRRSLQVGDIVQVRSLNVKGEVVSIGKNEVVVAVGRLQMRAGFDDLDFKERPKEEREVESV | -0.467
HMSDNLTIVRAVYSGLSQRQAAATYHVSRNTVSLLLRHARNRGWLTLEDLAQLDNAAFSKSL | -4.32
HMKKEQVIVPNVVGDTYDVALRKLTDAKLKVGETFPADREGHQGVIEKQSPAAGETVDEDTPVALFFKV | 0.0903
HMDMPLIGTAIRGWGIISPAQQETLIKMSILTVEDLAAINDEGIKRIGMGGLDLKNKAKAWLLQLK | -2.2
HMKVYPIMEAIANNNIELVKLLLEYHADLNIKDSNGNTPLALAKETGAKEVEDLLLQWMKQHT | -1.06
HMTTHEQVAILRRELNGLVGAWHHRTGQAHGVTHSKLRKELGGPPAAVASAAQLSARIEKIRQWAT | -0.922
HMASAAHYEGVKTEGESDNDVITRVLTATGVTAEKDDIFVVKSLIADGKYSYTAYVYDGSVWAAMD | -0.236
HMKRLQEQAYDYLKELILSGKMIENEIYSETKLASEIGISRTPIRDALQRLSQDGFIDIIPSKGFRIH | -0.734
HMFAKVEGITGDILDKLQQQRGFLALSDKSSPEAIYDTFGVSKKVFKQAIGTLFKQQKISIEAEGIRLV | -1.56
HMNVEVDSIGDDDFLVKVSAGTSTEHRVTLTDAYWEQIWSSSLPKKEIISLSFAFLLEREPNSSIMRT | 0.161
HMEKYTDDLEIAAEIARLETLMEGNGRVLIRPSGTEPLVRVMIEGNDIEQITKLAEDLAALLNKRF | -0.717
HMSEQVQLQAQVEDDLIGKRLDQVVAQLFPDYSRSRLQGWIKDGSLTVDGESRRPRDKMMGGEVVRVEATL | 0.107
HMGGEPKALLFAGVETREMAEITQRLEAADIPYEIREDGGSIYVARSEVFNARMMLSADGLPS | -0.455
HMKLIRLGKAAGELNVGMSTLAEFLQSKGHSVDPNPNTKLTPEQYALLRMEFAADQTLKKLTKQP | 0.452
HMATYETEVISGVNLRSAPNTSASVYRLLSKGEDIHVIQKVNDYWLKVQTKDGKIGYISASSKYTNYIA | -1.52
HMIMISKSFEINEDNINKRLDIFLTENLDGLSRGIVQKYISLEQITVNKESSHKDYRLKLDDFIEVKIQAH | -4
HMEQKELAPLVPQEDGSVKLTNLAGYSMREVAAALEGGNLSLIPIGSGTSWKQDPAPGTVLQPGNTVTVYF | -0.297
HMKYSYAELTKLQEQIAQDRNAPLTVPNALGIGLDERNNVIEITVNIADEAAAKAYYLQKYGDRISLKTTD | -0.317
HMQETPAMLAMKELPTEDEQRIYMMLQEDYDSVLLVKTIRNAFSQNPQLTRQQLLPIILTWLMT | -1.33
HMKYKKYKLLKDLPTFKAGQLAYISKTGNLIAGTPENQKTTETGLIIMIYHETTLKKFPNILTEWFEEIE | -3.3
HMKKTDFNVENYDIEELAAILNFKYVPLNQGLIRDRIKDMKQRFKNKPEYIKFFTDVEIKLVNNLNLFN | -1.67
HMGDAVSRAYFALADDLLKGELTETVSEVLIRTRYELTSAQLQAVLHRIAQEGWAHKKPGYGWEFSAMLT | -2.01
HMGQISDESVLKEMVVQLIADNPKEVASYLGGKETLLQWFMGQVARATKGKADPQAVKQLLLDEFEKLK | 0.0498
HMNFTETENRIYEEILKNVKQHKKKTVVQIAEKVDVAPSYVIKVAKKLGYSGLNEMWYSLSGIY | -0.916
